Measured values from patent WO2021228904A1 (dated 2021).
Substitutions are numbered along the chain they refer to.

B1: SEQ ID NOs: 629/633 (HCVR/LCVR) (antibody, V domains shown)
VH: QVQLVESRAEVKKPGSSVKVSCKASGGTFSSYAISWVRQAPGQGLEWMGRIIPILGITNYAQKFQGRVTITADKSTSTAYMELSSLRSEDTAVYYCARDAPDYYDSSGPTYFDYWGQGTLVTVSS
VL: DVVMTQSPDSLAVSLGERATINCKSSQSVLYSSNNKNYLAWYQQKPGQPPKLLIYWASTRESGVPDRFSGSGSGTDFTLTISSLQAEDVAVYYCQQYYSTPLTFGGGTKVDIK
B2: SEQ ID NOs: 573/577 (HCVR/LCVR) (antibody, V domains shown)
VH: QVQLQESGPGLVKPSETLSLTCTASGGSISSSSYYWGWIRQPPGKGLEWIGSIYYSGSTYYNPSLKSRVTISVDTSKNQFSLKLSSVTAADTAVYYCARHPSGLYQLLNWGQGTLVTVSS
VL: AIRMTQSPSSLSASVGDRVTITCQASQDISNYLNWYQQKPGKAPKLLIYDASNLETGVPSRFSGSGSGTDFTFTISSLQPEDIATYYCQQYDNLLSLTFGGGTKVEIK
B3: SEQ ID NOs: 533/537 (HCVR/LCVR) (antibody, V domains shown)
VH: EVQLVESGGGLVKPGGSLRLSCSASGFTFSNYNMDWVRQAPGKGLEWVSSISSSSSYIYLADSVKGRFTISRDNAKNSLYLQMNSLRAEDTAVYYCARVQKDIVVVPVALADYYYYGMDVWGQGTTVTVSS
VL: DIVMTQSPATLSVSPGERATLSCRASQSVSSNLAWYQQKPGQAPRLLIYGASTRATGIPARFSGSGSGTEFTLTISSLQPEDFAVYYCQQCYNWPPWTFGQGTRVEFK
B4: SEQ ID NOs: 429/433 (HCVR/LCVR) (antibody, V domains shown)
VH: EVQLVESGGGVVQPGRSLRLSCAASGFTFSSYGMHWVRQAPGKGLEWVAVIWYDGSNKYYADSVKGRFTISRDNSKNTLYLQMDSLRAEDTAMYYCAKDKAPPCSSGWYYFDYWGQGTLVTVSS
VL: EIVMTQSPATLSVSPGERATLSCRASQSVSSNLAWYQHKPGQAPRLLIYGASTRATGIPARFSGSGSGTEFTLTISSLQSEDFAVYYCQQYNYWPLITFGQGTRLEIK
B5: COVA1-22 (antibody, V domains shown)
VH: EVQLVESGAEVKKPGASVKVSCKASGYTFTSYGISWVRQAPGQGLEWMGWISAYNGYTNSAQKLQGRVTMTTDTSTSTAYMELRSLRSDDTAVYYCARDLVDTAMVQTLDDYGMDVWGQGTMVTVSS
VL: not shown
B6: SEQ ID NOs: 49/53 (HCVR/LCVR) (antibody, V domains shown)
VH: QVQLVESGAEVKKPGSSVKVSCKASGGTLSSYAITWVRQAPGQGLEWVGGIIPIFGTANYAQKFQGRVTITADESTSTAYMELSSLRSEDTAVYYCARVGAYDSSGYSNDYWGQGTLVTVSS
VL: DIQLTQSPATLSLSPGERATLSCRASQSVSSYLAWYQQKPGQAPRLLIYDASNRATGIPARFSGSGSGTDFTLTISSLEPEDFAVYYCQQRSNWPPRVTFGGGTKVEIK
B7: SEQ ID NOs: 445/449 (HCVR/LCVR) (antibody, V domains shown)
VH: EVQLVESGPGLVKPSQTLSLTCTVSGGSISSGDYYWSWIRQPPGKGLEWIGYIYYSGSTYYNPSLKSRVTISVDTSKNQFSLKLSSVTAADTAVYYCARGVEDPVVPAAIPWCWFDPWGQGTRVTVSS
VL: QSVLTQPPSVSVAPGQTARITCGGNNIGSKSVHWYQQKPGQAPVLVVYDDSDRPSGIPERFSGSNSGNTATLTISRVEAGDEADYYCQVWASSSVVFGGGTKLTVL
B8: SEQ ID NOs: 201/205 (HCVR/LCVR) (antibody, V domains shown)
VH: QLQLQESGPGLVKPSQTLSLTCTVSGGSISSGGYYWSWIRQLPGKGLEWIGYIYYSGSTYYNPSLKSRVTISVDTSKNQFSLNLSSVTAADTAVYYCARQQLDYYDSSGCFDYWGQGTLVTVSS
VL: DIVMTQSPSFLSASVGDRVTITCRASQGISSYLAWYQQKPGKAPKLLIYAASTLQSGVPSRFSGSGSGTEFTLTISSLQPEDFATYYCQQLHSYPLTFGGGTKVDIK
B9: 002_P2H1 (antibody, V domains shown)
VH: EVQLVESGGGLIQPGGSLRLSCAASGFTVSSNYMSWVRQAPGKGLEWVSVIYSGGSTYYADSVKGRFTISRDNSKNTLYLQMNSLRAEDTAVYYCASPLLLTPPDYYYYMDVWGKGTMVTVSS
VL: DVVMTQSPSSLSVSVGDRVTITCRASQGIRNDLGWYQQKPGKAPKRLIYAASSLQSGVPSRFSGSGSGTEFTLTISSLQPEDFATYYCLQHNSYLWTFGQGTKLEIK
B10: SEQ ID NOs: 337/341 (HCVR/LCVR) (antibody, V domains shown)
VH: QVQLVQSGAEVKKPGATVKISCKVSGYTFTDYYMHWVQQAPGKGLEWMGLVDPEDGETIYAEKFQGRVTITADTSTDTAYMELSSLRSEDTAVYYCASSDSSGFVGSRGFDYWGQGTRVTVSS
VL: B9 VL with V2I, V3Q, M4L, V13A, L95P, W96P, T97L, L104V
B11: SEQ ID NOs: 153/157 (HCVR/LCVR) (antibody, V domains shown)
VH: QVQLVESGGGLVKPGGSLRLSCAASGFTFSSYSMNWVRQAPGKGLEWVSSISSSSSYIYYADSVKGRFTISRDDAKNSLFLQMNSLRAEDTAVYYCAGDQNLYCSGDSCYYHYYGMDVWGQGTVVTVSS
VL: NFMLTQPPSVSVAPGKTARITCGGNNIGSKSVHWYQQKPGQAPVLVIYYDSDRPSGIPERFSGSNSGNTATLTISRVEAGDEADYYCQVWDSSSDHWVFGGGTKLTVL
B12: 002_P1H2 (antibody, V domains shown)
VH: EVQLVESGAEVKKPGSSVKVSCKASGGTLSSYAISWVRQAPGQGLEWMGGIIPIFGTANYAQKFQGRVTITTDESTSTAYMELSSLRSEDTAVYYCARGPRGCSSTSCYGSYFDYWGQGTLVTVSS
VL: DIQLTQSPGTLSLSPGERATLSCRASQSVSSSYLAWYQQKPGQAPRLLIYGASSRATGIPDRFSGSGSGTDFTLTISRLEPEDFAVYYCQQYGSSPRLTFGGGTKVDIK
B13: COVA2-39 (antibody, V domains shown)
VH: QVQLVETGGGLIQPGGSLRLSCAASGFTVSSNYMSWVRQAPGKGLEWVSVIYTGGTTYYADSVKGRFTISRDNSKNTLYLQMNSLRAEDTAVYYCARAHVDTAMVESGAFDIWGQGTRVTVSS
VL: QSALTQPASVSGSPGQSITISCTGTSSDVGSYNLVSWYQQHPGKAPKLMIYEVTKRPSGVSNRFSGSKSGNTASLTISGLQAEDEADYYCCSYAGSSTWVFGGGTKLTVL
B14: SEQ ID NOs: 233/237 (HCVR/LCVR) (antibody, V domains shown)
VH: EVQLVESGGGLVQPGGSLRLSCAASGFTFSSYSMNWVRQAPGKGLEWVSYISSSSSTIYYADSVKGRFTISRDNAKNSLYLQMNSLRAEDTAVYYCAREANSDFWSGYLGYFDYWGQGTLVTVSS
VL: EIVMTQSPATLSLSPGERATLSCRASQSVSSYLAWYQQKPGQAPRLLIYDASNRATGIPARFSGSGSGTDFTLTISSLEPEDFAVYYCQQRSNWPQVTFGQGTRLEIK
B15: COVA1-16 (antibody, V domains shown)
VH: QVQLVQSGAEVKKPGASVKVSCKASGYTFTSYYMHWVRQAPGQGLEWMGIINSSGGSTSYAQKFQGRVTMTRDTSTSTVYMELSSLRSEDTAVYYCARPPRNYYDRSGYYQRAEYFQHWGQGTLVTVSS
VL: DIQLTQSPSSLSASVGDRVTITCQASQDISNYLNWYQQRPGKAPKLLIYDASNLETGVPSRFSGSGSGTDFTFTISSLQPEDIATYYCQQYDNPPLTFGGGTKLEIK
B16: 002_P1D6 (antibody, V domains shown)
VH: EVQLLESGAEVKKPGESLKISCKGSGYSFTSYWIGWVRQMPGKGLEWMGIIYPGDSDTRYSPSFQGQVTISADKSISTAYLQWSSLKASDTAMYYCARHMRPSIAARPGYQYYMDVWGKGTRVTVSS
VL: not shown
B17: COVA2-29 (antibody, V domains shown)
VH: EVQLVESGGGVVQPGRSLRLSCAASGFTFSSYTMHWVRQAPGKGLEWVAVISYDGSNKYYADSVKGRFTISRDNSKNTLYLQMNSLRAEDTAVYYCASLPVVPAAIGPLPAFDIWGQGTMVTVSS
VL: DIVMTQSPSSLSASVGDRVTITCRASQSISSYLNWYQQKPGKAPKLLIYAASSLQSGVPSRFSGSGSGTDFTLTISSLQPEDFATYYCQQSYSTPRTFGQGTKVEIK
B18: SEQ ID NOs: 565/569 (HCVR/LCVR) (antibody, V domains shown)
VH: EVQLLESGAEVKKPGASVKISCKASGYTFTGYYMHWVRQAPGQGLEWMGWINPNSGGTNYAQKFQGRVTMTRDTSISTAYMELSRLRSDDTAVYYCARGDGDYYDSSGYYRPTLYNWLDPWGQGTRVTVSS
VL: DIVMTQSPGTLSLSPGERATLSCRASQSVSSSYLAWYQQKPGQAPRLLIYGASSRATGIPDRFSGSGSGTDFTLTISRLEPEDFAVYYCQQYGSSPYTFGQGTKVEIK
B19: SEQ ID NOs: 389/393 (HCVR/LCVR) (antibody, V domains shown)
VH: EVQLVESGAEVKKPGSSVKVSCKASGGTFSSYAISWVRQAPGQGLEWMGGIIPIFGTANYAQKFQGRVTITTDESTSTAYMELSSLRSEDTAVYYCARGPRYCSSTSCYAGVYFDYWGQGTRVTVSS
VL: not shown
B20: SEQ ID NOs: 453/457 (HCVR/LCVR) (antibody, V domains shown)
VH: EVQLVESGVEVKKPGASVKVSCKAFGYTFTGQDMHWVRQAPGQGLEWMGWINPSSAGTNYAQKFQGRVTMTRDTSISTAYMELSRLRSDDTSVYYCRKMLTIFGKVNQTMLLISGAKGQWSPSLQWGQGTMVTVSS
VL: DIVMTQTPLSLSVTPGQPASISCKSGQSLLHSDGKTYLYWYLQKPGQPPQLLIYEVSNRFSGVPDRFSGSGSGTDFTLKISRVEAEDVGVYYCMQSIQLPPTFGQGTKVEIK
B21: COVA2-07 (antibody, V domains shown)
VH: EVQLVETGGGLIQPGGSLRLSCAASGLTVSSNYMNWVRQAPGKGLEWVSVIYSGGSTYYADSVKGRFTISRDNSKNTLYLQMNSLRAEDTAVYYCAREAYGMDVWGQGTMVTVSS
VL: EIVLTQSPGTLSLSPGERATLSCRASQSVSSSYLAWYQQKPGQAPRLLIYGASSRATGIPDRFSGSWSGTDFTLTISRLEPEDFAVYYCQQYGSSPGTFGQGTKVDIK
B22: COVA2-02 (antibody, V domains shown)
VH: VQLQQESGPGLVKPSETLSLTCTVSGGSISSSSYYWGWIRQPPGKGLEWIGSIYYSGSTYYNPSLKSRVTISVDTSKNQFSLKLSSVTAADTAVYYCARRSTSRWGYYYMDVWGKGTRVTVSS
VL: DIVMTQSPSSLSASVGDRVTITCRASQSISNYLNWYQQKPGKAPKLLLYAASDLQSGVPSRFSGSGSGTDFTLTISSLQPEDFATYYCQQSYSTHMSTFGQGTKVDIK
B23: 002_P1H10 (antibody, V domains shown)
VH: QVQLVETGGGLIQPGGSLRLSCAASGFTVSSNYMSWVRQAPGKGLEWVSVIYSGGSTYYADSVKGRFTISRDNSKNTLYLQMNSLRAEDTAVYYCARDLDTMGGMDVWGQGTRVTVSS
VL: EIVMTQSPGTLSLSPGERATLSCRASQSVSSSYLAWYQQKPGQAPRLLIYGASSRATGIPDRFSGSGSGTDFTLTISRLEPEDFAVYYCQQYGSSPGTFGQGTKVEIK
B24: SEQ ID NOs: 469/473 (HCVR/LCVR) (antibody, V domains shown)
VH: QVQLVQSGAEVKKPGESLRISCKGSGYSFTSHWISWVRQMPGKGLEWMGRIDPSDSYTNYSPSFQGHVTISADKSISTAYLQWSSLKASDTAMYYCARLKVITIFGVVRDDYGMDVWGQGTTVTVSS
VL: QSALTQPASVSGSPGQSITISCTGTSSDVGSYNLVSWYQQHPGKAPKLMIYDSSKRPSGVSNRFSGSKSGNTASLTISGLQAEDEADYYCCSYAGSVFGGGTKLTVL
B25: SEQ ID NOs: 213/209 (HCVR/LCVR) (antibody, V domains shown)
VH: EVQLVESGPGLVKPSETLSLTCTVSGGSISSYYWSWIRQPPGKRLEWIGYIYYSGSTNYNPSLKSRVTISVDTSKNQFSLKLNSVTAADTAAYYCARGFDYWGQGTRVTVSS
VL: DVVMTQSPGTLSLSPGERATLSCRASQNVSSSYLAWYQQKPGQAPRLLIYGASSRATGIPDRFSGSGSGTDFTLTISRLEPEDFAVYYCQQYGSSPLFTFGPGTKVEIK
B26: SEQ ID NOs: 397/401 (HCVR/LCVR) (antibody, V domains shown)
VH: EVQLVQSGAEVKKPGESLRISCKGSGYSFTSYWISWVRQMPGKGLEWMGRIDPSDSYTNYSPSFQGHVTISADKSISTAYLQWSSLKASDTAMYYCARPNPAGGYDSSGWVDAFDIWGQGTRVTVSS
VL: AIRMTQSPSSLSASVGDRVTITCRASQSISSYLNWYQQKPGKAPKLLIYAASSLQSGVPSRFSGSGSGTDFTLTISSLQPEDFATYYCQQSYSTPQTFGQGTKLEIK

Each binder was assayed against stabilized prefusion SARS-CoV-2 S ectodomain (SARS-CoV-2 (Wuhan-Hu-1), UniProt P0DTC2 15-1138) (assay: SPR).
B1 was tested, and the Kd was at most 1 nM. Work on B2 yielded a Kd of at most 1 nM. With B3 the Kd was at most 1 nM. With B4 the Kd was at most 1 nM. B5 was tested, and the Kd was at most 1 nM. With B6 the Kd was at most 1 nM. For B7, the Kd was at most 1 nM. In the case of B8, the Kd is reported as at most 1 nM. B9 was tested, and the Kd was at most 1 nM. B10 showed a Kd of at most 1 nM. In the case of B11, the Kd is reported as at most 1 nM. In the case of B12, the Kd is reported as at most 1 nM. B13 showed a Kd of at most 1 nM. B14 showed a Kd of at most 1 nM. With B15 the Kd was at most 1 nM. With B16 the Kd was at most 1 nM. B17 showed a Kd of at most 1 nM. B18 gave a Kd of at most 1 nM. B19 showed a Kd of at most 1 nM. B20 showed a Kd of at most 1 nM. In the case of B21, the Kd is reported as at most 1 nM. Work on B22 yielded a Kd of at most 1 nM. In the case of B23, the Kd is reported as at most 1 nM. For B24, the Kd was at most 1 nM. In the case of B25, the Kd is reported as at most 1 nM. B26 showed a Kd of at most 1 nM.
